{
  "source": "patent US20180148493A1",
  "binders": {"B1": {"name": "… (peptide)", "peptide": "AIIRILQQL", "modifications": "not checked"}},
  "biological_target": "HLA-A2 (Homo sapiens)",
  "data": [
    {"binder": "B1", "values": [
      {"measurement": "IC50", "result": 385, "unit": "nM"}
    ]}
  ]
}
